Measurements from patent US20120208237A1 (Novo Nordisk, published 2012).

Biological target: T1, KIR2DS3 expressed on transfected cells (human, UniProt Q14952 22-304)
T1 construct: whole, on cells
Test: flow cytometry on cells transfected with KIR2DS3 (fifth column; its head is printed KIRDLS1 a second time, the legend's order gives KIR2DS3)
Description: The KIR2DL cross-reactive mAbs were then tested for their ability to react with KIR at the surface of cells by flow cytometry. Briefly, the binding of the human anti-KIR mAbs was tested by incubating them with various cell lines stably over-expressing KIRs (e.g., YTS-2DL1, BWZ-KIR2DL2 and BWZ-KIR2DS4) or not expressing KIRs (e.g., YTS and BWZ). Briefly, cells were incubated with various concentrations (typically 0-50 μg/ml) of human anti-KIR mAb1-7F9 in DMEM-medium containing 2% FCS. After incubation, cells were washed and incubated with APC-conjugated secondary antibodies specific for human IgG. All incubations and washing steps were performed at 0-4° C. Subsequently, cells were washed, resuspended in PBS, and analyzed by flow cytometry on a FACScalibur or a FACScanto (both from Beckton Dickinson).

T1 sequence (Q14952 22-304): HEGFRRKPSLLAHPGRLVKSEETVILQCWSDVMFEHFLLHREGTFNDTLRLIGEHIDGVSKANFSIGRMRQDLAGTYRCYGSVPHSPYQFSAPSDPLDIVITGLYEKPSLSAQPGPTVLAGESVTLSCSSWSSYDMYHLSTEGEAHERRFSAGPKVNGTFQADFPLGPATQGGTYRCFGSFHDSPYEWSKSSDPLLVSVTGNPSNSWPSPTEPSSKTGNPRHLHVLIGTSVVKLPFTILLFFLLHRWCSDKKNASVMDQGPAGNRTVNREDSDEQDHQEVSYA

B1: human monoclonal antibody 1-7F9 (antibody, human IgG4, kappa, V domains shown)
VH: QVQLVQSGAEVKKPGSSVKVSCKASGGTFSFYAISWVRQAPGQGLEWMGGFIPIFGAANYAQKFQGRVTITADESTSTAYMELSSLRSDDTAVYYCARIPSGSYYYDYDMDVWGQGTTVTVSS
VL: EIVLTQSPVTLSLSPGERATLSCRASQSVSSYLAWYQQKPGQAPRLLIYDASNRATGIPARFSGSGSGTDFTLTISSLEPEDFAVYYCQQRSNWMYTFGQGTKLEIKR
notes: also called HuKIR 1-7F9; HuKIR1-7F9
B1: no binding (tested: 1 µg/ml).
